Laboratory results published in patent US20200325230A1 (CURIA IP, published 2020).
Substitutions are numbered along the chain they refer to. Names may count otherwise.

B1: anti-BTLA antibody 16-I20A (antibody, V domains shown)
VH: QVQLQESGPGLVKPSETLSLTCTVSGGSISYYYWSWIRQPPGTGLEWIGYIYYSGSTKYNPSLKRRVTISVDTSKNQFSLKLSSVTAADTAVYYCARIRGDSYGWDFDYWGQGTLVTVSS
VL: EIVMTQSPATLSLSPGERATLSCRASQSISNNYLFWYQQKPGQAPRLLIYGASTRATGIPARFSGSGSGTDFTLTISSLQPEDFAVYYCQQDYNFPLTFGGGTKVEIK
notes: also called 16420A
B2: anti-BTLA antibody 16-H16A (antibody, V domains shown)
VH: QLQLQESGPGLVKPSETLSLTCTVSGDSISSSGYYWGWIRQPPGKGLEWIGSIYYSGSTHYNPSLKSRVTISVDSSKSQFSLKLSSVTAADTAVYCCARHKVDSSGWPLDYWGQGTLVTVSS
VL: B1 VL with N31S, N32S, Y33C, F35S, G51D, A52T, F95L
B3: anti-BTLA antibody 13-F7A (antibody, V domains shown)
VH: EVQLLESGGGLVQPGGSLRLSCAASGFTSSSYGMSWVRQAPGKGLEWVSGISGSGGGTYYADSVKGRFTISRDNSKNTLYLQMNSLRAEDTAVYYCAKGDYYGSGSYPLFDYWGQGTLVTVSS
VL: AIQLTQSPSSLSASVGDRVTITCRASQDISSALAWYQQKPGKAPKLLISDASSLESGVPSRFSGSGSGTDFTLTISSLQPEDFATFYCQQFNNYPPTFGPGTKVDIK
B4: anti-BTLA antibody 12-I8A (antibody, V domains shown)
VH: QVQLVESGGGVVQPGRSLRLSCAASGFTFSNYGMHWVRQAPGKGLEWVAVIWYNGSNKYYADSVKGRFTISRDNSKNTLYLQMNSLRAEDTAVYYCARDDVVRYFDWPLDYWGQGTLVTVSS
VL: AIQMTQSPSSLSASVGDRVTITCRASQGIRNDLGWYQQKPGKAPKVLIYAASSLQSGVPSRFSGSGSGTDFTLTISSLQPEDFATYYCLQDYNYPWTFGQGTKVEIK
notes: also called 12-IBA
B5: anti-BTLA antibody 8-M23A (antibody, V domains shown)
VH: QVQLQESGPGLVKPSETLSLTCTVSGGSISSYYWSWIRQPPGKGLEWIGYIYYSGSTNYNPSLKSRITISVDTSKNQFSLKLSSVTAADTAVYYCARVILYSSGWSFDYWGQGTLVTVSS
VL: B1 VL with I29V, N31S, N32S, F35S, F95L

What follows are binders tested against recombinant human BTLA (human, UniProt Q7Z6A9 31-157, limits assumed) (assay: Bio-Layer Interferometry (Octet), antibody captured by anti-human-Fc (AHC), BTLA in solution, 1:1 fit).

Binder	Kd [nM]
B1	14.9
B2	13.9
B3	5.4
B4	25.2

These binders were tested against T1, cynomolgus BTLA (analyte of Bio-Layer Interferometry) (cynomolgus, UniProt A0A2K5W7M7 31-157) in the same assay as above.
T1 construct: also called Cyno BTLA
T1 sequence (A0A2K5W7M7 entry or part of it): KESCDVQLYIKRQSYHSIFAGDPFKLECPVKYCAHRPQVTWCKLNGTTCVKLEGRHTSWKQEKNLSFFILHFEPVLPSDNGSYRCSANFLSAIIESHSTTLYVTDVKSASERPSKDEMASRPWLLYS

Binder	Kd [nM]
B1	16.6
B2	4.1
B3	3.9
B4	23.2

These binders were tested against T2, human BTLA-human Fc (human, UniProt Q7Z6A9 31-157) (assay: ELISA, inhibition of BTLA-human Fc binding to coated human HVEM-ratIgG2a).
T2 construct: not shown: human Fc

Binder	IC50 [nM]
B1	2.9
B2	3
B3	2.5
B4	4.4

What follows are binders tested against T3, cynoBTLA-human Fc (cynomolgus, UniProt A0A2K5W7M7 31-157) (assay: ELISA, inhibition of cynoBTLA-human Fc binding to coated human HVEM-ratIgG2a).
T3 construct: also called cynomolgus BTLA; not shown: human Fc

Binder	IC50 [nM]
B1	2.5
B2	2.3
B3	1.8
B4	4.6

The binders below were run against T4, cynomolgus BTLA(ECD)-HIS (cynomolgus, UniProt A0A2K5W7M7 31-157) (assay: ELISA, coated BTLA(ECD)-HIS, chemiluminescence (RLU)).
T4 construct: extracellular domain; also called Cyno BTLA; not shown: HIS tag

Binder	EC50 [nM]
B1	0.8
B2	1.9
B3	1
B4	4.2

What follows are binders tested against T5, human BTLA(ECD)-HIS (human, UniProt Q7Z6A9 31-157) in the same assay as above.
T5 construct: extracellular domain; also called recombinant BTLA; not shown: HIS tag

Binder	EC50 [nM]
B1	0.7
B2	0.9
B5	0.8
B3	1
B4	1.4

These binders were tested against T6, human BTLA expressed on HEK-293 cells (human, UniProt Q7Z6A9 31-289) (assay: flow cytometry on HEK 293 cells expressing BTLA (MFI)).
T6 construct: whole, on cells

Binder	EC50 [nM]
B1	5
B2	4.7
B3	1.5
B4	2.9

These binders were tested against T7, cynomolgus BTLA expressed on HEK-293 cells (cynomolgus, UniProt A0A2K5W7M7 31-289) in the same assay as above.
T7 construct: whole, on cells; also called Cyno BTLA
T7 sequence (A0A2K5W7M7 entry or part of it): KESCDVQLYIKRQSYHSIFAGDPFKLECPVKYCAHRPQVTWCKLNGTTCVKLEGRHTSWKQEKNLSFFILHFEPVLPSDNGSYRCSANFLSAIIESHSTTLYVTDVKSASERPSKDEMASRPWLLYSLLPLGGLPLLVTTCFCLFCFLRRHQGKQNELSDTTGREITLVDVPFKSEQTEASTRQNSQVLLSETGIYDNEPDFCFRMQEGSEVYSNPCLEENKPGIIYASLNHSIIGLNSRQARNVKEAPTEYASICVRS

Binder	EC50 [nM]
B1	6.9
B2	4.4
B3	2.6
B4	5
